According to article PMC8673838, “MCPH1 inhibits Condensin II during interphase by regulating its SMC2-Kleisin interface” (eLife, 2021):

T1: NCAPG2 subunit of human condensin II (human, UniProt Q86XI2 1-1143)
T1 construct: NCAPG2, human, HAWK subunit of condensin II; Never tested alone: the contact is drawn from complexes with and without this subunit; source: insect cells, as a subunit of purified condensin II (Kong et al., 2020)
T1 sequence (looked up): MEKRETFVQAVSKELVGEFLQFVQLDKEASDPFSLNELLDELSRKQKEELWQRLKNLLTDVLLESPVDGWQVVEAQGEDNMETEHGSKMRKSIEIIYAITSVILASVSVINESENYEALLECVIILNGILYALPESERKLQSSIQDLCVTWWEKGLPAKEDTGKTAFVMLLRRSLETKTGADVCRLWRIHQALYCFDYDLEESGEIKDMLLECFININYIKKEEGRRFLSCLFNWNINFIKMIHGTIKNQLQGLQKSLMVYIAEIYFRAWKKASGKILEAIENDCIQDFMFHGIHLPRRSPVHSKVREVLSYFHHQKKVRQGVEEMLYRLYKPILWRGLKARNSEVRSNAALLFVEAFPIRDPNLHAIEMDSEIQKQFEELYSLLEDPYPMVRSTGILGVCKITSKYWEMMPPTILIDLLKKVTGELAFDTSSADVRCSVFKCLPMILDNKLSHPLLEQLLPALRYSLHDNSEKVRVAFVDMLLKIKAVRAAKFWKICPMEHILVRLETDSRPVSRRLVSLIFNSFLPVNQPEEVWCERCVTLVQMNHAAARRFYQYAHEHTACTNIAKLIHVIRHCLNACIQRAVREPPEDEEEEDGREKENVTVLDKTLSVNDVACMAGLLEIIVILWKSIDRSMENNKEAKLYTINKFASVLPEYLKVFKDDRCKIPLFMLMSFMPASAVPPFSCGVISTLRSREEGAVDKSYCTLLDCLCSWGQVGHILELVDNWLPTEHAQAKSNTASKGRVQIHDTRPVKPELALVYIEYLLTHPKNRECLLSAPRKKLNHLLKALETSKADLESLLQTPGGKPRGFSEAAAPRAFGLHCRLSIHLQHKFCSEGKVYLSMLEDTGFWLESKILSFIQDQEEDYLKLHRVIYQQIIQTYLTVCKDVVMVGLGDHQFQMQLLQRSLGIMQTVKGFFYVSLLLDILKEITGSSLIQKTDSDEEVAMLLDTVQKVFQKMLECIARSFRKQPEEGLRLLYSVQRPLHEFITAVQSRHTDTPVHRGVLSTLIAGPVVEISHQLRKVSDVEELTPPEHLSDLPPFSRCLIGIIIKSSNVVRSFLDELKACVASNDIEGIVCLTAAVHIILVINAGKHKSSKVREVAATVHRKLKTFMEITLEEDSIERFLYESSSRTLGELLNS

T2: MCPH1 1-435-MBP (Homo sapiens, UniProt Q8NEM0 1-435)
T2 sequence: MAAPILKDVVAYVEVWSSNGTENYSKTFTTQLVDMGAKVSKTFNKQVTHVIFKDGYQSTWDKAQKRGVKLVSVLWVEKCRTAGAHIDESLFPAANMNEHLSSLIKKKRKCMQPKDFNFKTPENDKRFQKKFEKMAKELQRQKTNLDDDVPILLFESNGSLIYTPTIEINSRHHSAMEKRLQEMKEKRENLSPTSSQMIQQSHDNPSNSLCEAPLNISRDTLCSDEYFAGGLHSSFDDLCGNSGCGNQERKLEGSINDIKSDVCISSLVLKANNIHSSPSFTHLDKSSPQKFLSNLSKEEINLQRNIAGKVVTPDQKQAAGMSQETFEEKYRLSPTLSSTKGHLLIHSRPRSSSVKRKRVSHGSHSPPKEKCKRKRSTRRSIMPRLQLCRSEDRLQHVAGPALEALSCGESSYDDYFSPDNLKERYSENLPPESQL


Tests used:
[1] = target: T3, human condensin II pentameric complex (SMC2, SMC4, NCAPH2, NCAPD3, NCAPG2) (human, UniProt O95347 1-1197; Q9NTJ3 1-1288; Q6IBW4 1-605; P42695 1-1498; Q86XI2 1-1143); assay: native gel or EMSA; condensin II at increasing concentrations with MCPH1_(1-435)-MBP, MBP or 1 µM 5-FAM peptide and 50 nM Cy5-labelled 50 bp dsDNA; 15 min on ice; 2 % agarose, 0.5 x TBE; settings: both partners purified
T3 construct: SMC2, human, subunit of condensin II; SMC4, human, subunit of condensin II; NCAPH2, human, kleisin subunit of condensin II; NCAPD3 (CAP-D3), human, HAWK subunit of condensin II; NCAPG2 (CAPG2), human, HAWK subunit of condensin II; It says only 'strep-tagged condensin II'; also called pentameric condensin II; strep-tagged condensin II; source: insect cells, purified as previously described (Kong …)
T3 sequence (O95347 whole entry, chain 1 of 4): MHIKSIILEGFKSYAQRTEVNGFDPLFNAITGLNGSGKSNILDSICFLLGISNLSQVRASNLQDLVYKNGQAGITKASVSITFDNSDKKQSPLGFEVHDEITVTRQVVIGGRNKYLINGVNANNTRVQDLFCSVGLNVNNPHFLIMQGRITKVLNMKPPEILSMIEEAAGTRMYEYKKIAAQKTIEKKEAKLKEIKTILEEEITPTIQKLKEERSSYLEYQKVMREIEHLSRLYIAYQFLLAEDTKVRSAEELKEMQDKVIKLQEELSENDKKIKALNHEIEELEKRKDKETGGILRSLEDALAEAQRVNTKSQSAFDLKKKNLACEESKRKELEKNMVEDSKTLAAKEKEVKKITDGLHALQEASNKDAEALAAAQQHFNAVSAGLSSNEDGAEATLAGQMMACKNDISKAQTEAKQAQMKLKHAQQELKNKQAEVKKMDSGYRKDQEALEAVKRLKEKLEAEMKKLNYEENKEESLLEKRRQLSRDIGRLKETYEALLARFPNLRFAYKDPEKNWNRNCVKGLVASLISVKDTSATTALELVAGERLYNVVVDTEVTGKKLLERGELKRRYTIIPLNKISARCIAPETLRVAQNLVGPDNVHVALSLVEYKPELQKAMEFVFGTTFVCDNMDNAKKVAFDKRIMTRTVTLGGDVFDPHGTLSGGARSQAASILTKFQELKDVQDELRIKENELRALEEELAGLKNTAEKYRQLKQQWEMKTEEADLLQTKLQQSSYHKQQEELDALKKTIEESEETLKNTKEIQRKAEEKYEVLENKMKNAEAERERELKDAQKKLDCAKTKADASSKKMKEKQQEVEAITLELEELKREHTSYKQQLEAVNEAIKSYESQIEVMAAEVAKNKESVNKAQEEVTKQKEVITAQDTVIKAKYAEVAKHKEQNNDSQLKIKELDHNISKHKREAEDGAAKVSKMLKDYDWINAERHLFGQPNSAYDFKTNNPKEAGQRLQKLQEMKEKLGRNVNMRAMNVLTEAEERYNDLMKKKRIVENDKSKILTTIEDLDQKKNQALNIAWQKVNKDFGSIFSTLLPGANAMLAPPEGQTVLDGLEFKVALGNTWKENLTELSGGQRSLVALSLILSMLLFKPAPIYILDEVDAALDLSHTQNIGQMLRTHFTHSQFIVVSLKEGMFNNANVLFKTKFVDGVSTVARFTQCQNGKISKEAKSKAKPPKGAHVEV
T3 sequence (Q9NTJ3 whole entry, chain 2 of 4): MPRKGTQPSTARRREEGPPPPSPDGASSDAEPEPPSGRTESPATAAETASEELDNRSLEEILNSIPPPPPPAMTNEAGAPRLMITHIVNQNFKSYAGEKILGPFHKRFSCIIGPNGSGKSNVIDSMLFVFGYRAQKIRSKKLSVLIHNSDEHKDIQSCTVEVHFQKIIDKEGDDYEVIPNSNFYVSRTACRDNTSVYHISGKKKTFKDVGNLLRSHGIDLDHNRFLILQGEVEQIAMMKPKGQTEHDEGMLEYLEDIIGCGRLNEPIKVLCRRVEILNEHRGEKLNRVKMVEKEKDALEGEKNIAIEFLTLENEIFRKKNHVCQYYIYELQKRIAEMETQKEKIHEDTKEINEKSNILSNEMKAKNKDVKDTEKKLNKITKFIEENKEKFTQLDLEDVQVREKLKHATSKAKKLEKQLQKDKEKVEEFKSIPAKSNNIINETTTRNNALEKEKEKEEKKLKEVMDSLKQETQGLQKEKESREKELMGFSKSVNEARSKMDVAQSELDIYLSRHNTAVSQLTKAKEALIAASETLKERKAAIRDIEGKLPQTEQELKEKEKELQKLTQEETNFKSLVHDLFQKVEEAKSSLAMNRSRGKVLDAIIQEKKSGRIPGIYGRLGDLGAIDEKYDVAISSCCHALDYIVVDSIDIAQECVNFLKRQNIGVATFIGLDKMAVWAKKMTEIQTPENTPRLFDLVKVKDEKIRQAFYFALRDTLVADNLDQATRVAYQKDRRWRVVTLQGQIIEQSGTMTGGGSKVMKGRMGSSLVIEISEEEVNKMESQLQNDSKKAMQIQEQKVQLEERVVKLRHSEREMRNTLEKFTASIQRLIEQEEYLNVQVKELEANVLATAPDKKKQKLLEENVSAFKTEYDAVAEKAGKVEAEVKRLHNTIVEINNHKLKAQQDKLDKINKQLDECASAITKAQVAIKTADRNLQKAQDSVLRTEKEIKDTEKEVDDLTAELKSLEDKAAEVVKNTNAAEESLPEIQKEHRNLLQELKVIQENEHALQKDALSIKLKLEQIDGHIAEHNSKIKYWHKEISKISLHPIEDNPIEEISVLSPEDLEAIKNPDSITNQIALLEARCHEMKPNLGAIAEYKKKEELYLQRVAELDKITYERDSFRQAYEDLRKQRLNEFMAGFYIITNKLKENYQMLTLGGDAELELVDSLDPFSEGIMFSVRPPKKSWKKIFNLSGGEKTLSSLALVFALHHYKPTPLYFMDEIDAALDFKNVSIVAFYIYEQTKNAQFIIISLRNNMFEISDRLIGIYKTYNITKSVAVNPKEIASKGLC
T3 sequence (Q6IBW4 whole entry, chain 3 of 4): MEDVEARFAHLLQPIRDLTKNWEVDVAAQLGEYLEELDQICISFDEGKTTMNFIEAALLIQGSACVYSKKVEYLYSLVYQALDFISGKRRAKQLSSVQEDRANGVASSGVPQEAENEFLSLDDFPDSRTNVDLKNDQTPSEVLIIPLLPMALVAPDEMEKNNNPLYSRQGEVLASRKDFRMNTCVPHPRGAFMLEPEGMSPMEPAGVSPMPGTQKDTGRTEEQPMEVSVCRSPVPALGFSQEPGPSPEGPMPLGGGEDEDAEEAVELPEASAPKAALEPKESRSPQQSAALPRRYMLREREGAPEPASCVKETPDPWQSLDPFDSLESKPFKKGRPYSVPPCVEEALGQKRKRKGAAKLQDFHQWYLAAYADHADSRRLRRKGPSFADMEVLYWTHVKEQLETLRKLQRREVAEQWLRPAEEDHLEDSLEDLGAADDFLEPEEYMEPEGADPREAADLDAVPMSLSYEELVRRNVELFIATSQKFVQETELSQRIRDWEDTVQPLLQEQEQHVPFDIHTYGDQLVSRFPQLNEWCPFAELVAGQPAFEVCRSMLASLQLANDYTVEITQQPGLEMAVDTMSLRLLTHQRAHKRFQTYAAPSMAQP
T3 sequence (P42695 whole entry, chain 4 of 4): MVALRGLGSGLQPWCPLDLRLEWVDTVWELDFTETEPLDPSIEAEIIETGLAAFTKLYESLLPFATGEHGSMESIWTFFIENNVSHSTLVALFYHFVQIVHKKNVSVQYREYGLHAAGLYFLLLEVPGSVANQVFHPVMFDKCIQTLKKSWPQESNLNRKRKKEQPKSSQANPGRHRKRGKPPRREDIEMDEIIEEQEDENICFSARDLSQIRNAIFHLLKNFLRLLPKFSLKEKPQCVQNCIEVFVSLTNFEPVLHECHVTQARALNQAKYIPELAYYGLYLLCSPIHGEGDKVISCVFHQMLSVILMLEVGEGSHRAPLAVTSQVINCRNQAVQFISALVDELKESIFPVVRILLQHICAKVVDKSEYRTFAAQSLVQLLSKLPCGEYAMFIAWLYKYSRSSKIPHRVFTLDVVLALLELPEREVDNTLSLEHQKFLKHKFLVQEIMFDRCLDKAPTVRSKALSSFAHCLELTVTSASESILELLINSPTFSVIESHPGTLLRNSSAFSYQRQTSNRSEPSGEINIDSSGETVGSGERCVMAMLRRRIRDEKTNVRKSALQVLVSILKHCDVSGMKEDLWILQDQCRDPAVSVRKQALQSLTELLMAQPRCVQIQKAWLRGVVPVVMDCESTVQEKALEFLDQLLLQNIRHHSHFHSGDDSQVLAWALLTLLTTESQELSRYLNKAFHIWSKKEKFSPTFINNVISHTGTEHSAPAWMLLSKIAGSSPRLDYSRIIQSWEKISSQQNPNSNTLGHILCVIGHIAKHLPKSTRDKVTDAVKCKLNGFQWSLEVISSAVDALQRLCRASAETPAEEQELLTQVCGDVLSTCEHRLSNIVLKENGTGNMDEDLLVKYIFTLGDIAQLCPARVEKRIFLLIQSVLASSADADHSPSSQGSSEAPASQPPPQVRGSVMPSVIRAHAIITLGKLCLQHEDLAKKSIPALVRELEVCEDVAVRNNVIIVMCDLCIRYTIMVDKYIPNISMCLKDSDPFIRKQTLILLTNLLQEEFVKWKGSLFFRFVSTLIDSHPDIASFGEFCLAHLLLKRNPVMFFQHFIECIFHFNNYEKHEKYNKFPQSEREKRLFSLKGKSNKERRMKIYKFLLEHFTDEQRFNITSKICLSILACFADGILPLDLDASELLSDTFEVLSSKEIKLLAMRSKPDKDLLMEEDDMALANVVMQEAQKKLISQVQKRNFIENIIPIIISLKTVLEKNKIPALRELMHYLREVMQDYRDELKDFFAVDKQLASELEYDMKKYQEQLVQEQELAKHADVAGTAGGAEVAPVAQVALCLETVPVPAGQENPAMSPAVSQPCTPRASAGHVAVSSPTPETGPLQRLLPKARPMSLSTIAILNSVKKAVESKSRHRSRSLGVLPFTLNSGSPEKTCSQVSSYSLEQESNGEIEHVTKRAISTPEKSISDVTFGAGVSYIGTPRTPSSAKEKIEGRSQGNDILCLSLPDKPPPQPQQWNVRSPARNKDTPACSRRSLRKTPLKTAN

[2] = target: T1, NCAPG2 subunit of human condensin II; assay: pull-down; strep-tagged condensin complexes (0.1 µM) with at least a 10-fold molecular excess of MBP MCPH1 constructs or MBP, Strep-tactin sepharose, 20 mM Tris pH 7.5, 150 mM NaCl, 10 % glycerol, 1 mM DTT; five washes; Coomassie or silver stain; settings: both partners purified
[3] = target: T4, tetrameric condensin II lacking NCAPD3 (human, UniProt O95347 1-1197; Q9NTJ3 1-1288; Q6IBW4 1-605; Q86XI2 1-1143); assay: as above; settings: both partners purified
T4 construct: SMC2, human; SMC4, human; NCAPH2, human; NCAPG2, human; also called tetrameric condensin II lacking the CAP-D3 subunit; source: insect cells, purified as previously described (Kong et al., 2020); copies: + + +
T4 sequence (O95347 whole entry, chain 1 of 3): as the sequence (O95347 whole entry, chain 1 of 4) above
T4 sequence (Q9NTJ3 whole entry, chain 2 of 3): as the sequence (Q9NTJ3 whole entry, chain 2 of 4) above
T4 sequence (Q6IBW4 whole entry, chain 3 of 3): as the sequence (Q6IBW4 whole entry, chain 3 of 4) above

MCPH1 1-435-MBP = target: T2, MCPH1 1-435-MBP; assay: EMSA; 50 nM DNA; EMSA with 50 nM 5'-Cy5 50 bp dsDNA; EMSA buffer, salt, pH and temperature not given in the material; settings: protein: recombinant; tags: N-term 6xHis, C-term MBP; label: 5' Cy5; blunt
condensin II pentamer = condensin II pentamer (Homo sapiens, UniProt O95347;Q9NTJ3;Q6IBW4;P42695;Q86XI2 1-1197;1-1288;1-605;1-1498;1-1143); assay: EMSA; with MBP control or without peptide; EMSA with 50 nM 5'-Cy5 50 bp dsDNA; EMSA buffer, salt, pH and temperature not given in the material; settings: protein: recombinant; tags: Strep tag; copies: 1;1;1;1;1; label: 5' Cy5; blunt
[4] = target: condensin II pentamer;MCPH1 1-435-MBP (Homo sapiens;Homo sapiens, UniProt O95347;Q9NTJ3;Q6IBW4;P42695;Q86XI2;Q8NEM0 …, |); assay: EMSA; condensin II bands shifted upward with MCPH1 1-435-MBP; EMSA with 50 nM 5'-Cy5 50 bp dsDNA; EMSA buffer, salt, pH and temperature not given in the material; settings: protein: recombinant;recombinant; tags: Strep tag;N-term 6xHis, C-term MBP; copies: 1;1;1;1;1;1; label: 5' Cy5; blunt

binding result [1] | binding result [2] | binding result [3] | Binder | binding result (MCPH1 1-435-MBP) | binding result (condensin II pentamer) | binding result [4]
binds | binds | binds | MCPH1_(1-435)-MBP (domain or fragment, human, UniProt Q8NEM0 1-435, looked up, the text says the tag was moved to the C-terminus for this experiment; source: E. coli BL21 (DE3) pLysS, purified (Ni-NTA, ion exchange or heparin); not shown: MBP, C-terminal, kept) MAAPILKDVVAYVEVWSSNGTENYSKTFTTQLVDMGAKVSKTFNKQVTHVIFKDGYQSTWDKAQKRGVKLVSVLWVEKCRTAGAHIDESLFPAANMNEHLSSLIKKKRKCMQPKDFNFKTPENDKRFQKKFEKMAKELQRQKTNLDDDVPILLFESNGSLIYTPTIEINSRHHSAMEKRLQEMKEKRENLSPTSSQMIQQSHDNPSNSLCEAPLNISRDTLCSDEYFAGGLHSSFDDLCGNSGCGNQERKLEGSINDIKSDVCISSLVLKANNIHSSPSFTHLDKSSPQKFLSNLSKEEINLQRNIAGKVVTPDQKQAAGMSQETFEEKYRLSPTLSSTKGHLLIHSRPRSSSVKRKRVSHGSHSPPKEKCKRKRSTRRSIMPRLQLCRSEDRLQHVAGPALEALSCGESSYDDYFSPDNLKERYSENLPPESQL | – | – | –
– | – | – | 50 bp dsDNA (dsDNA) DNA 1: CTGTCACACCCTGTCACACCCTGTCACACCCTGTCACACCCTGTCACACC DNA 2: GGTGTGACAGGGTGTGACAGGGTGTGACAGGGTGTGACAGGGTGTGACAG | binds | binds | binds
